Laboratory results published in US20230121197A1, “ANTIBODIES SPECIFICALLY BINDING THE CARBOXYMETHYLATED CATALYTIC SUBUNIT OF PROTEIN PHOSPHATASE 2A” (Medizinische Universität Wien, priority 2020, published 2023).

T1: PP2Ac C-terminal peptide meL309, ac-HVTRRTPDYFL-CH3 (α-carboxymethylated) (human, SMILES …)
T1 construct: also called Y307-meL309; mePP2Ac
T1 peptide: Ac-HVTRRTPDYFL-OMe


Legend:
[1] = target: T1, PP2Ac C-terminal peptide meL309, …; assay: SPR, ratio of steady-state KD values
Text: (A) Saturation curve of the titration of the α-carboxymethylated PP2Ac C-terminal peptide (SEQ ID NO:18) on 7C10-C5 or 2A10 immobilized on a Series S Sensor Chip CM5 (GE Healthcare, 10296958). […] (B) Saturation curve of the titration of the α-carboxymethylated PP4c C-terminal peptide (SEQ ID NO:20) on 7C10-C5 or 2A10 immobilized on a Series S Sensor Chip CM5 (GE Healthcare, 10296958). […] The KD values were obtained using the fitting tool of the BiacoreT200 Evaluation Software (version 3.1).
The differential affinity of anti-carboxymethylated PP2Ac antibodies, 7C10-C5 and 2A10, to carboxymethylated PP2A catalytic subunit versus noncarboxymethylated PP2A catalytic subunit was determined by surface plasmon resonance (SPR) on a Biacore T200 (GE Healthcare) at the Core Facility Biomolecular & Cellular Analysis (University of Natural Resources and Life Sciences Vienna BOKU). The affinity of 7C10-C5 for carboxymethylated and noncarboxymethylated catalytic subunit of PP4 (PP4c), a PP2A-related phosphatase, was also determined.

PP2Ac = assay: Summary of detection properties of C-terminal PP2Ac antibodies (Table 4), PP2Ac; assay type: binding
Experimental: Examples of antibodies with a preference for non-methylated PP2Ac are mouse monoclonal antibody 4B7 (Yu (2001), Mol Biol Cell 12, 185-199), mouse monoclonal antibody 1D7 generated by the Ogris lab but also the rabbit monoclonal E155 antibody from Abeam and the mouse monoclonal F-8 from SCBT that were thought to be specific for pTyr^307.
E155 was tested for its specificity to phosphorylation and methylation on the carboxy-terminus of PP2A on 6 different undecapeptides by ELISA (FIGS. 18 and 19). Flat-bottom Nunc-Immuno Medisorp 96-well ELISA plates (Thermo; 467320) were coated o/n at 4° C. with 50 μl of either a peptide of the sequence ac-HVTRRTPDYFL-OH (L309) (SEQ ID NO:18) at a concentration of 2 μg/ml, a peptide of the sequence ac-HVTRRTPDYFL-CH3 (meL309) (SEQ ID NO:18) at a concentration of 2 μg/ml in TBS (137 mM NaCl (AppliChem, #131659, 2.7 mM KCl (AppliChem, #131494.), 24.8 mM Tris (AppliChem, #A1086), pH 7.4 with HCl), with a peptide of the sequence ac-HVTRRpTPDYFL-OH (pT304-L309) (SEQ ID NO:116) at a concentration of 2 μg/ml in TBS, or with a peptide of the sequence ac-HVTRRpTPDYFL-CH3 (pT304-meL309) (SEQ ID NO:116) at a concentration of 2 μg/ml in TBS (FIG. 18). The wells were washed once with TBS, blocked with 200 μl of 2% bovine serum albumin (BSA) (Sigma, A9647) in TBS for 1 hour at RT and washed again once with TBS. […] Bound antibodies were detected colorimetrically by addition of 50 μl of 33 μg/ml […] (TMB) (Sigma, T2885) in 0.1 M sodium acetate pH 6.0 and 0.01% H2O2 (Sigma, H1009). The colorimetric reaction was stopped after 10 min by addition of 50 μl 0.5 M H2SO4, and absorbance was measured at 450 nm and 560 nm with a Perkin Elmer VICTOR® Nivo™ microplate reader. The results from 560 nm read were subtracted from the 450 nm read.
In a further experiment, flat-bottom Nunc-Immuno Medisorp 96-well ELISA plates (Thermo; 467320) were coated o/n at 4° C. with 50 μl of either a peptide of the sequence ac-HVTRRTPDYFL-OH (L309) (SEQ ID NO:18) at a concentration of 2 μg/ml in TBS (137 mM NaCl (AppliChem, #131659, 2.7 mM KCl (AppliChem, #131494.), 24.8 mM Tris (AppliChem, #A1086), pH 7.4 with HCl), a peptide of the sequence ac-HVTRRTPDYFL-CH3 (meL309) (SEQ ID NO:18) at a concentration of 2 μg/ml in TBS (137 mM NaCl (AppliChem, #131659.1214, 2.7 mM KCl (AppliChem, #131494.1211) pH 7.4 with HCl), with a peptide of the sequence ac-HVTRRTPDpYFL-OH (pY307-L309) (SEQ ID NO:117) at a concentration of 2 μg/ml in TBS or with a peptide of the sequence ac-HVTRRTPDpYFL-CH3 (pY307-meL309) (SEQ ID NO:117) at a concentration of 2 μg/ml in TBS (FIG. 19). […] The colorimetric reaction was stopped after 10 min by addition of 50 μl 0.5 M H2SO4, and absorbance was measured at 450 nm and 570 nm with a Biotek Synergy™ H1 microplate reader. […]

[2] = antibodies screened for binding methylated PP2Ac

Molecule | fold stronger binding than to carboxymethylated PP4c (ratio of KD) [1] [fold] | meLeu^309 (PP2Ac; PP2Ac carboxymethylated at Leu309) | pThr^304 meLeu^309 (PP2Ac; [2]) | pTyr^307 meLeu^309 (PP2Ac; [2]) | unmodified (PP2Ac; unmodified PP2Ac C-terminus)
7C10-C5 monoclonal antibody (antibody, V domains shown, Used as hybridoma culture supernatant (ELISA, Western blot, IHC) or at 50 µg/mL (SPR); also called 7C10 X63; clone 7C10-C5) VH: DVQLQESGPGLVKPSQSLSLTCSVTGYSITSGYYWNWIRQFPGNKLEWMGYISYDGSNNYNPSLKNRISITRDTSKNQFFLKLNSVTTEDTATYYCAGRFAYWGQGTLVTVSA VL: DVLMTQTPLSLPVSLGDQASISCRSSQSIVHSNGNTYLEWYLQKPGQSPKLLIYKVSNRFSGVPDRFSGSGSGTDFTLKINRVEAEDLGVYYCFQGSHVPWTFGGGTKLEIK | 12 | – | – | – | –
7C10-C5: α-carboxymethylation specific mouse monoclonal IgG1 antibody from single clone hybridoma 7C10-C5 (DSM ACC3350) (antibody, Amino acid sequence of the recombinant 7C10-C5 heavy chain; Amino acid sequence of the recombinant 7C10-C5 light chain) heavy: MYRMQLLSCIALSLALVTNSDVQLQESGPGLVKPSQSLSLTCSVTGYSITSGYYWNWIRQFPGNKLEWMGYISYDGSNNYNPSLKNRISITRDTSKNQFFLKLNSVTTEDTATYYCAGRFAYWGQGTLVTVSAAKTTAPSVYPLAPVCGDTTGSSVTLGCLVKGYFPEPVTLTWNSGSLSSGVHTFPAVLQSDLYTLSSSVTVTSSTWPSQSITCNVAHPASSTKVDKKIEPRGPTIKPCPPCKCPAPNLLGGPSVFIFPPKIKDVLMISLSPIVTCVVVDVSEDDPDVQISWFVNNVEVHTAQTQTHREDYNSTLRVVSALPIQHQDWMSGKEFKCKVNNKDLPAPIERTISKPKGSVRAPQVYVLPPPEEEMTKKQVTLTCMVTDFMPEDIYVEWTNNGKTELNYKNTEPVLDSDGSYFMYSKLRVEKKNWVERNSYSCSVVHEGLHNHHTTKSFSRTPGK light: MDMRVPAQLLGLLLLWLSGARCDVLMTQTPLSLPVSLGDQASISCRSSQSIVHSNGNTYLEWYLQKPGQSPKLLIYKVSNRFSGVPDRFSGSGSGTDFTLKINRVEAEDLGVYYCFQGSHVPWTFGGGTKLEIKADAAPTVSIFPPSSEQLTSGGASVVCFLNNFYPKDINVKWKIDGSERQNGVLNSWTDQDSKDSTYSMSSTLTLTKDEYERHNSYTCEATHKTSTSPIVKSFNRNEC | – | *** (*** 80-100%) | **** (**** >100%) | *** (*** 80-100%) | — (— <15%)
